Source: US20250197488A1 (MABWELL SHANGHAI BIOSCIENCE, published 2025)
Where a chain is given by its changes, count along the chain named.

T1: IL-11 (Cat. 12225-HNCE, Sino Biological Inc.) (UniProt P20809 22-199, limits assumed)
T1 sequence (looked up): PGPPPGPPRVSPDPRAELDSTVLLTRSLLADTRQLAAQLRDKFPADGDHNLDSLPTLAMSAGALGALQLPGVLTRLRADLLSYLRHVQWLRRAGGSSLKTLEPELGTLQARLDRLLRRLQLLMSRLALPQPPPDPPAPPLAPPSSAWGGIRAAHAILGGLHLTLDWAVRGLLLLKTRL

T2: human IL-11 (AAH12506.1, Pro22-Leu199) (human, UniProt P20809 22-199)
T2 construct: The range Pro22-Leu199 counts on AAH12506.1; The Octet runs say only 'human IL-11'; also called hIL-11
T2 chain: T1 sequence (looked up) with H154L

B1: hz18A10 (antibody, human IgG1, kappa, V domains shown)
VH: EVQLVQSGAEVKKPGASVKVSCKASGYTFTTYNMDWVRQAPGQGLEWMGTIYPGNGDTSYNQKFKGRVTMTRDTSTSTVYMELSSLRSEDTAVYYCARGDLYALDYWGQGTLVTVSS
VL: DIQMTQSPSSLSASVGDRVTITCKASQSVSNDVAWYQQKPGKAPKLLIYSASNRYTGVPSRFSGSGSGTDFTFTISSLQPEDIATYYCQHDYSSPYTFGQGTKLEIKR
notes: humanized, human constant regions; also called hz18A10-VH + hz18A10-VL; parent antibody hz18A10
B2: hz8C8 (antibody, human IgG1, kappa, V domains shown)
VH: EVQLVESGGGLVQPGGSLRLSCAASGFTFSSFGMHWVRQAPGKGLEWVAYITSGSNTIYYADTVKGRFTISRDNAKNSLYLQMNSLRAEDTAVYYCAREYYSYDEGFAYWGQGTLVTVSS
VL: EIVLTQSPATLSLSPGERATLSCSVSSSISSNYLHWYQQKPGQAPRLLIYRTSNLASGIPARFSGSGSGTDFTLTISSLEPEDFAVYYCQQGVDVPFTFGQGTKLEIKR
notes: humanized, human constant regions; also called hz8C8-VH + hz8C8-VL; parent antibody hz8C8
B3: hz8C8-VHm1-m11 + hz8C8-VLm7-m2 (antibody, human IgG1, kappa, V domains shown)
VH: B2 VH with S53P, F107P
VL: B2 VL with S27D, S28L, S30P, N32Q, R51D, T52A
notes: human IgG1 constant regions
B4: hz8C8-VHm1-m12 + hz8C8-VLm7-m2 (antibody, human IgG1, kappa, V domains shown)
VH: B2 VH with S53P, F107G
VL: B2 VL with S27D, S28L, S30P, N32Q, R51D, T52A
notes: human IgG1 constant regions
B5: hz8C8-VHm1-m5 + hz8C8-VLm7-m2 (antibody, human IgG1, kappa, V domains shown)
VH: B2 VH with W47Y, S53P
VL: B2 VL with S27D, S28L, S30P, N32Q, R51D, T52A
notes: human IgG1 constant regions
B6: hz8C8-VHm1-m7 + hz8C8-VLm7-m2 (antibody, human IgG1, kappa, V domains shown)
VH: B2 VH with A49S, Y50V, S53P
VL: B2 VL with S27D, S28L, S30P, N32Q, R51D, T52A
notes: human IgG1 constant regions
B7: hz8C8-VHm1-m6 + hz8C8-VLm7-m2 (antibody, human IgG1, kappa, V domains shown)
VH: B2 VH with Y50V, S53P
VL: B2 VL with S27D, S28L, S30P, N32Q, R51D, T52A
notes: human IgG1 constant regions
B8: hz8C8-VHm2 + hz8C8-VL (antibody, human IgG1, kappa, V domains shown)
VH: B2 VH with S53A
VL: B2 VL
notes: human IgG1 constant regions
B9: hz8C8-VHm6 + hz8C8-VLm7 (antibody, human IgG1, kappa, V domains shown)
VH: B2 VH with S53P, N56S
VL: B2 VL with S27D, S28L, S30P, N32Q
notes: human IgG1 constant regions
B10: hz8C8-VHm1-m13 + hz8C8-VLm7-m2 (antibody, human IgG1, kappa, V domains shown)
VH: B2 VH with S53P, Y109S
VL: B2 VL with S27D, S28L, S30P, N32Q, R51D, T52A
notes: human IgG1 constant regions
B11: hz8C8-VHm5 + hz8C8-VLm7 (antibody, human IgG1, kappa, V domains shown)
VH: B2 VH with H35S, S53P
VL: B2 VL with S27D, S28L, S30P, N32Q
notes: human IgG1 constant regions
B12: hz8C8-VHm4 + hz8C8-VL (antibody, human IgG1, kappa, V domains shown)
VH: B2 VH with S55A
VL: B2 VL
notes: human IgG1 constant regions
B13: hz8C8-VHm1-m4 + hz8C8-VLm7-m2 (antibody, human IgG1, kappa, V domains shown)
VH: B2 VH with A49S, S53P
VL: B2 VL with S27D, S28L, S30P, N32Q, R51D, T52A
notes: human IgG1 constant regions
B14: hz8C8-VHm1-m8 + hz8C8-VLm7-m2 (antibody, human IgG1, kappa, V domains shown)
VH: B2 VH with V48I, A49G, S53P
VL: B2 VL with S27D, S28L, S30P, N32Q, R51D, T52A
notes: human IgG1 constant regions
B15: hz8C8-VHm3 + hz8C8-VL (antibody, human IgG1, kappa, V domains shown)
VH: B2 VH with S53P, I58T
VL: B2 VL
notes: human IgG1 constant regions
B16: hz8C8-VHm1-m10 + hz8C8-VLm7-m2 (antibody, human IgG1, kappa, V domains shown)
VH: B2 VH with S53P, Y103S
VL: B2 VL with S27D, S28L, S30P, N32Q, R51D, T52A
notes: human IgG1 constant regions
B17: hz8C8-VHm1-m9 + hz8C8-VLm7-m2 (antibody, human IgG1, kappa, V domains shown)
VH: B2 VH with V48M, A49G, S53P
VL: B2 VL with S27D, S28L, S30P, N32Q, R51D, T52A
notes: human IgG1 constant regions

molecular target: T1, IL-11 (Cat. 12225-HNCE, Sino Biological …); test: cell-based or functional assay

Binder | Blocking activity (IC50), STAT3-luc reporter [µg/mL]
B1 | 18.5
B2 | 2.04
B3 | 0.01
B4 | 0.012
B5 | 0.194
B6 | 0.027
B7 | 0.034
B8 | 0.51
B9 | 0.066
B10 | 0.008
B11 | 0.01
B12 | 1.54
B13 | 0.004
B14 | 0.003
B15 | 0.946
B16 | 0.008
B17 | 0.002

molecular target: T1, IL-11 (Cat. 12225-HNCE, Sino Biological …); test: competition ELISA, IL-11/IL-11Rα/GP130 complex
Description: The activity of the recombinant murine anti-IL-11 antibodies for blocking the formation of IL-11/IL-11Rα/GP130 complex was analyzed via competition ELISA. IL-11Rα-His (NP_004503.1, Met1-Val363, C-terminus-6-His Tag) was firstly added into ELISA plates to be coated overnight. Next day, samples were prepared as follows. […] After co-incubating and washing, an HRP conjugated anti-human Fc secondary antibody was added to develop the color which was then detected.
(§1) Then, light and heavy chain expression vectors for preparing mutant antibodies were constructed according to the method for preparing the recombinant antibodies provided in Example 4, using the mutant sequences shown in Table 3 which accordingly were linked with human IgG1 constant regions (SEQ ID NO. 13, and SEQ ID NO.14). Subsequently, the light chain and the heavy chain were reasonably matched and co-transfected into eukaryotic cells for transient expression, and then recombination protein samples of the mutant antibodies were obtained through affinity purification. The samples obtained were tested for affinity on Fortebio Octet, according to the method for measuring affinity provided in Example 1. Further, using the protocol provided in Example 3, hz8C8 and its affinity matured mutants were analyzed for their activity for blocking the formation of IL-11/IL-11Rα/GP130 complex.

Binder | IC50 [µg/mL]
B2 | 2.56
B3 | 1.7
B4 | 1.54
B5 | 0.52
B6 | 2.14
B7 | 1.71
B8 | 0.694
B9 | 0.54
B10 | 0.54
B11 | 0.65
B12 | 1.01
B13 | 0.79
B14 | 0.57
B15 | 0.828
B16 | 1.57
B17 | 0.77

Molecular target: T2, human IL-11 (AAH12506.1, Pro22-Leu199)
Test: BLI (Octet), antibody captured, human IL-11 in solution
Description: The affinity of the murine antibodies purified from the hybridoma supernatants was determined using an Octet QKe System instrument from Fortebio Inc. with an anti-mouse IgG Fc Capture biosensor to capture the Fc fragments of the antibodies, for which an anti-IL-11 antibody named “3C6-mFc” recombinantly expressed was used at the same concentration as a positive control. Specifically, a hybridoma supernatant was diluted with HBS-EP+ buffer (GE), and was allowed to pass through the surface of AMC probes (Cat: 18-5088, PALL), and so the antibody in the hybridoma supernatant was captured on the surface of the probes; then, human IL-11 diluted in the HBS-EP+ buffer (300 nM) was used as a mobile phase to react with the antibody captured on the surface of the probes. Both the binding and the dissociating were conducted for 300 seconds. When the experiment was finished, data from which response values of blank controls had been deducted was fitted using a 1:1 Langmuir binding model by software, and then kinetic constants for antigen-antibody binding were calculated. Binding signals were detected on the Octet QKe System instrument with Hy5C2, Hy8C8, Hy16B5, Hy18A10, and Hy18H10.
(§2) The affinity of hz18A10 and hz8C8 was determined according to the method provided in Example 1 using AHC bioprobes for capturing human Fc fragment instead, with other conditions unchanged. A recombinantly expressed anti-IL-11 antibody 3C6-hFc was used at the same concentration as a positive control.
as §1, with “1.” for “1. Further, using the protocol provided in Example 3, hz8C8 and its affinity matured mutants were analyzed for their activity for blocking the formation of IL-11/IL-11Rα/GP130 complex.”

Binder | Kd [nM] | koff [s⁻¹] | kon [M⁻¹ s⁻¹]
B3 | 1.3 | 0.001 | 771000
B4 | 7.95 | 0.00139 | 175000
B5 | 0.0594 | 4.05e-05 | 683000
B6 | 1.87 | 0.00111 | 595000
B7 | 2.07 | 0.00135 | 653000
B8 | 0.727 | 0.000586 | 806000
B9 | 0.156 | 0.000127 | 812000
B10 | 0.0573 | 4.32e-05 | 753000
B11 | 0.19 | 0.000175 | 920000
B12 | 1.37 | 0.0012 | 878000
B13 | < 0.001 | < 1e-07 | 879000
B14 | < 0.001 | < 1e-07 | 847000
B15 | 4.77 | 0.00216 | 453000
B16 | 1.39 | 0.000305 | 219000
B17 | 0.0239 | 2.14e-05 | 897000

Molecular target: T2, human IL-11 (AAH12506.1, Pro22-Leu199)
Test: BLI (Octet), antibody on AHC probe, human IL-11 in solution
Description: (§3) When the hybridoma cells were cultured to a certain number, culture supernatants were collected and purified using Protein G affinity chromatography to obtain murine hybridoma antibodies (Hy5C2, Hy8C8, Hy16B5, Hy18A10, Hy18H10, Hy23G6 and Hy29C11). The affinity of the murine antibodies purified from the hybridoma supernatants was determined using an Octet QKe System instrument from Fortebio Inc. with an anti-mouse IgG Fc Capture biosensor to capture the Fc fragments of the antibodies, for which an anti-IL-11 antibody named “3C6-mFc” recombinantly expressed was used at the same concentration as a positive control. Specifically, a hybridoma supernatant was diluted with HBS-EP+ buffer (GE), and was allowed to pass through the surface of AMC probes (Cat: 18-5088, PALL), and so the antibody in the hybridoma supernatant was captured on the surface of the probes; then, human IL-11 diluted in the HBS-EP+ buffer (300 nM) was used as a mobile phase to react with the antibody captured on the surface of the probes. Both the binding and the dissociating were conducted for 300 seconds. When the experiment was finished, data from which response values of blank controls had been deducted was fitted using a 1:1 Langmuir binding model by software, and then kinetic constants for antigen-antibody binding were calculated. Binding signals were detected on the Octet QKe System instrument with Hy5C2, Hy8C8, Hy16B5, Hy18A10, and Hy18H10.
as §2

Binder | Kd [nM] | koff [s⁻¹] | kon [M⁻¹ s⁻¹]
B2 | 1.6 | 0.00134 | 836000

Molecular target: T2, human IL-11 (AAH12506.1, Pro22-Leu199)
Test: as above
Remark: another data set of the same source
Description: as §3, §2

Binder | Kd [nM] | koff [s⁻¹] | kon [M⁻¹ s⁻¹]
B1 | 3.21 | 0.00249 | 773000
